Experimental data published in US5851983, “Elastase inhibitory polypeptide and process for production thereof by recombinant gene technology” (Teijin Limited, dated 1998).
Read-outs that look alike come from different tables or passages of the source. No end group written: not given here.

T1: Human cathepsin G (EPC Co., Funakoshi Yakuhin) (human, UniProt P08311)
T1 sequence: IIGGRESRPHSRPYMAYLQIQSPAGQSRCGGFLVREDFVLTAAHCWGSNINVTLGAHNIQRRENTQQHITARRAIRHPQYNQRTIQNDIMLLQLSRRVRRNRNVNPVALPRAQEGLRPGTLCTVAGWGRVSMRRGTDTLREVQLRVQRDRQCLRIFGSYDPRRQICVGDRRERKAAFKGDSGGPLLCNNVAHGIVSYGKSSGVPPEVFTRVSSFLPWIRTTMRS


Legend:
Human plasma thrombin = Human plasma thrombin (human, UniProt P00734); experiment: cell-based or functional assay
[1] = molecular target: Calf pancreatic chymotrypsin (Sigma) (calf (bovine), UniProt P00766); experiment: cell-based or functional assay
Human plasma kallikrein = Human plasma kallikrein (human, UniProt P03952); experiment: cell-based or functional assay
[2] = molecular target: Porcine pancreatic elastase (Sigma) (porcine, UniProt P00772); experiment: cell-based or functional assay
Human plasma plasmin = Human plasma plasmin (human, UniProt P00747); experiment: cell-based or functional assay
[3] = molecular target: T2, Polymorphonuclear leukocyte elastase from human sputum (EPC Co.; Funakoshi Yakuhin) (human, UniProt P08246); experiment: enzyme inhibition with chromogenic substrate, Ki by the Dixon method
Experimental: (§1) To each well of a 96-well ELISA microplate were added 140 μl of the above-mentioned buffer, 20 μl of a test solution, and 20 μl of the enzyme solution, and the mixture was stirred at 37° C. for 30 minutes. Next, 20 μl of the substrate solution was added to the well, the mixture was stirred at 37° C. for one hour to develop same, and the absorbance at 405 nm was measured.
(§2) Moreover, an inhibitory constant Ki of the present (Asn^55-Ala^107) SLPI was calculated on the basis of the above data by a method of Dixon, M. and Webb, E. C. (1979), Enzyme, Longman or a method of Henderson, P. J. F. (1972) Biochem. J., 127, 321–333.

[4] = molecular target: T3, Calf pancreatic trypsin (Sigma) (calf (bovine), UniProt P00760); experiment: as above
Experimental: as §1, §2

[5] = molecular target: T2, Polymorphonuclear leukocyte elastase …; experiment: enzyme inhibition with chromogenic substrate, Ki by the Henderson method
Experimental: as §1, §2

[6] = molecular target: T3, Calf pancreatic trypsin (Sigma); experiment: as above
Experimental: as §1, §2

[7] = molecular target: T4, Bovine spleen chymotrypsin (Sigma) (bovine, UniProt P00766); experiment: cell-based or functional assay
[8] = molecular target: T1, Human cathepsin G (EPC Co., Funakoshi …); experiment: cell-based or functional assay
[9] = molecular target: T5, Porcine spleen elastase (Sigma) (porcine, UniProt P00772); experiment: cell-based or functional assay
[10] = molecular target: T6, Bovine spleen trypsin (Sigma) (bovine, UniProt P00760); experiment: enzyme inhibition with Bz-Arg-pNA, Ki by the Henderson method
Experimental: (§3) To wells of an ELISA 96-well microtiter plate, were added 120 μl of the buffer, 20 μl of a sample solution of (Arg^55-Ala^107) SLPI obtained in Example 25, and 20 μl of the enzyme solution in this order, an the mixture was reacted at 37° C. for 1 hour. Next, 20 μl of the substrate was added to develop at 25° C. Absorption of the developed color was measured at 405 nm. As a control, SLPI was used.

[11] = molecular target: T2, Polymorphonuclear leukocyte elastase …; experiment: enzyme inhibition with MeO-Suc-Ala-Ala-Pro-Val-pNA, Ki by the Henderson method
Experimental: as §3

[12] = molecular target: T2, Polymorphonuclear leukocyte elastase …; experiment: as above; remark: listed apart in the source
[13] = molecular target: T2, Polymorphonuclear leukocyte elastase …; experiment: enzyme inhibition; method not described
[14] = molecular target: T6, Bovine spleen trypsin (Sigma); experiment: enzyme inhibition with Bz-Arg-pNA, Ki by the Henderson method; remark: listed apart in the source
Experimental: as §3, with “(Arg^59-Ala^107)” for “(Arg^55-Ala^107)”, “23,” for “25,”

[15] = molecular target: T4, Bovine spleen chymotrypsin (Sigma); experiment: cell-based or functional assay; remark: listed apart in the source
[16] = molecular target: T1, Human cathepsin G (EPC Co., Funakoshi …); experiment: cell-based or functional assay; remark: listed apart in the source
[17] = molecular target: T5, Porcine spleen elastase (Sigma); experiment: cell-based or functional assay; remark: listed apart in the source
[18] = molecular target: T1, Human cathepsin G (EPC Co., Funakoshi …); experiment: cell-based or functional assay; remark: listed apart in the source

Row | IC50 [7] | IC50 [8] | IC50 [9] | Ki [10] | Ki [11] | Ki [12] | Ki [14] | IC50 [15] | IC50 [16] | IC50 [17] | Binder | other results
1 |  |  |  |  |  |  |  |  |  |  | (Asn^55 -Ala^107) SLPI fragment polypeptide (other, also: intramolecular disulfides in refolded form, pairing not given here) NPTRRKPGKCPVTYGQCLMLNPPNFCEMDGQCKRDLKCCMGMCGKSCVSPVKA | concentration of inhibitory protein which exhibits a 50% inhibition (Human plasma thrombin): > 2 µM; concentration of inhibitory protein which exhibits a 50% inhibition [1]: 10 nM; concentration of inhibitory protein which exhibits a 50% inhibition (Human plasma kallikrein): > 2 µM; concentration of inhibitory protein which exhibits a 50% inhibition [2]: 200 nM; concentration of inhibitory protein which exhibits a 50% inhibition (Human plasma plasmin): > 2 µM; Ki [3]: 0.03 nM; Ki [4]: 60 nM; Ki [5]: 0.2 nM; Ki [6]: 20 nM
2 | 6.8 nM | 8 nM | 23000 nM | 1100 nM | 0.09 nM |  |  |  |  |  | RRKPGKCPVTYGQCLMLNPPNFCEMDGQCKRDLKCCMGMCGKSCVSPVKA (other) [(Arg^58 -Ala^107) SLPI] | 
3 | 7 nM | 5.5 nM | 13000 nM | 33 nM | 0.08 nM | 0.08 nM | 33 nM | 7 nM | 5.5 nM | 13000 nM | Human secretory leukoprotease inhibitor (SLPI) (other) SGKSFKAGVCPPKKSAQCLRYKKPECQSDWQCPGKKRCCPDTCGIKCLDPVDTPNPTRRKPGKCPVTYGQCLMLNPPNFCEMDGQCKRDLKCCMGMCGKSCVSPVKA | Ki [13]: 0.25 nM
4 |  |  |  |  |  | 0.08 nM | 1100 nM | 5.8 nM | 8 nM | 11000 nM | RKPGKCPVTYGQCLMLNPPNFCEMDGQCKRDLKCCMGMCGKSCVSPVKA (other) [(Arg^59 -Ala^107) SLPI] | IC50 value [18]: 11 nM
